Reference: PMC4256047, “Structural and Functional Profiling of Environmental Ligands for Estrogen Receptors” (Environmental Health Perspectives, 2014)
Where no end group is shown, it is not given here. fluorescein = fluorescein label on the N-terminus of the peptide

How the values were obtained:
Settings in all cases: both partners purified
[1] = target: T1, human wt-ERβ LBD (estrogen receptor beta ligand-binding domain, amino acids 261-502) (human, UniProt Q92731 261-502); experiment: fluorescence polarisation; fluorescence anisotropy; 4 nM fluorescein-SRC-1 NR2 peptide, LBD diluted 2-fold from 10 uM (ERα) or 20 uM (ERβ); with TCBPA at 20 uM (ERα) or 40 uM (ERβ); 20 mM Tris pH 8.0, 150 mM NaCl, 5 mM DTT, 10% glycerol
T1 construct: Cloned into pET-32a; N-terminal thioredoxine-hexahistidine tag removed with TEV protease; not shown: thioredoxin, N-terminal, cleaved; His6, N-terminal, cleaved

[2] = target: T1, human wt-ERβ LBD (estrogen receptor …); experiment: fluorescence polarisation; fluorescence anisotropy; 4 nM fluorescein-SRC-1 NR2 peptide, LBD diluted 2-fold from 10 uM (ERα) or 20 uM (ERβ); with chlordecone at 20 uM (ERα) or 40 uM (ERβ); 20 mM Tris pH 8.0, 150 mM NaCl, 5 mM DTT, 10% glycerol
[3] = target: T1, human wt-ERβ LBD (estrogen receptor …); experiment: fluorescence polarisation; fluorescence anisotropy; 4 nM fluorescein-SRC-1 NR2 peptide, LBD diluted 2-fold from 10 uM (ERα) or 20 uM (ERβ); in the absence of ligand (apo-receptor); 20 mM Tris pH 8.0, 150 mM NaCl, 5 mM DTT, 10% glycerol
[4] = target: T2, human wt-ERα LBD (estrogen receptor alpha ligand-binding domain, amino acids 302-552) (human, UniProt P03372 302-552); experiment: as above
T2 sequence (looked up): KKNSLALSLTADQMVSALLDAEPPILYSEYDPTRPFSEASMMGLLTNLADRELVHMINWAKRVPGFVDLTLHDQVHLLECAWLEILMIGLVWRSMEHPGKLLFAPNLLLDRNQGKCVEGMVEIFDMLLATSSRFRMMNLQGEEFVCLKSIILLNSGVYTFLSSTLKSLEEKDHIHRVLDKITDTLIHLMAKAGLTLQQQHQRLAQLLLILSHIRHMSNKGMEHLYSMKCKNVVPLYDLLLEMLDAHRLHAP

[5] = target: T1, human wt-ERβ LBD (estrogen receptor …); experiment: fluorescence polarisation; fluorescence anisotropy; 4 nM fluorescein-SRC-1 NR2 peptide, LBD diluted 2-fold from 10 uM (ERα) or 20 uM (ERβ); with BBP at 20 uM (ERα) or 40 uM (ERβ); 20 mM Tris pH 8.0, 150 mM NaCl, 5 mM DTT, 10% glycerol
[6] = target: T2, human wt-ERα LBD (estrogen receptor …); experiment: fluorescence polarisation; fluorescence anisotropy; 4 nM fluorescein-SRC-1 NR2 peptide, LBD diluted 2-fold from 10 uM (ERα) or 20 uM (ERβ); with α-ZA at 20 uM (ERα) or 40 uM (ERβ); 20 mM Tris pH 8.0, 150 mM NaCl, 5 mM DTT, 10% glycerol
[7] = target: T1, human wt-ERβ LBD (estrogen receptor …); experiment: fluorescence polarisation; fluorescence anisotropy; 4 nM fluorescein-SRC-1 NR2 peptide, LBD diluted 2-fold from 10 uM (ERα) or 20 uM (ERβ); with BP-2 at 20 uM (ERα) or 40 uM (ERβ); 20 mM Tris pH 8.0, 150 mM NaCl, 5 mM DTT, 10% glycerol
[8] = target: T1, human wt-ERβ LBD (estrogen receptor …); experiment: fluorescence polarisation; fluorescence anisotropy; 4 nM fluorescein-SRC-1 NR2 peptide, LBD diluted 2-fold from 10 uM (ERα) or 20 uM (ERβ); with butylparaben at 20 uM (ERα) or 40 uM (ERβ); 20 mM Tris pH 8.0, 150 mM NaCl, 5 mM DTT, 10% glycerol
[9] = target: T1, human wt-ERβ LBD (estrogen receptor …); experiment: fluorescence polarisation; fluorescence anisotropy; 4 nM fluorescein-SRC-1 NR2 peptide, LBD diluted 2-fold from 10 uM (ERα) or 20 uM (ERβ); with 4-OP at 20 uM (ERα) or 40 uM (ERβ); 20 mM Tris pH 8.0, 150 mM NaCl, 5 mM DTT, 10% glycerol
[10] = target: T1, human wt-ERβ LBD (estrogen receptor …); experiment: fluorescence polarisation; fluorescence anisotropy; 4 nM fluorescein-SRC-1 NR2 peptide, LBD diluted 2-fold from 10 uM (ERα) or 20 uM (ERβ); with OHT (4-hydroxytamoxifen) at 20 uM (ERα) or 40 uM (ERβ); 20 mM Tris pH 8.0, 150 mM NaCl, 5 mM DTT, 10% glycerol
[11] = target: T2, human wt-ERα LBD (estrogen receptor …); experiment: as above

T1 sequence (Q92731 261-502): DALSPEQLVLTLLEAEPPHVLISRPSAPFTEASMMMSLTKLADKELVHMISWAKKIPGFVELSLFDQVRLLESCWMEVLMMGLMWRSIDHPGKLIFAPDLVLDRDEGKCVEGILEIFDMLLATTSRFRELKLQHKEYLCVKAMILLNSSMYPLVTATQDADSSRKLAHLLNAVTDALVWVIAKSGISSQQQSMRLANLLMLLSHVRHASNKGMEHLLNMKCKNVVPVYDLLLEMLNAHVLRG

B1: fluorescein-RHKILHRLLQEGS peptide corresponding to the NR box 2-binding motif of SRC-1 (peptide)
peptide: fluorescein-RHKILHRLLQEGS
notes: also called SRC-1 NR2 peptide; fluorescein-labeled SRC-1 NR2 peptide; source: bought: EZbiolab
B1 gave a Kd [1] of 4.33 µM, a Kd [2] of 9.13 µM and a Kd [3] of 4.54 µM. It also gave a Kd [4] of 6.28 µM, a Kd [5] of 10.6 µM and a Kd [6] of 0.33 µM. It also gave a Kd [7] of 0.99 µM, a Kd [8] of 1.13 µM and a Kd [9] of 1.55 µM. For the same binder, the Kd [10] was 38.8 µM and the Kd [11] was 23.6 µM.
